What was measured:
[1] = molecular target: human surfactant protein A (SP-A), native, supratrimeric (human) (UniProt Q8IWL2); assay: native gel or EMSA + other: electron microscopy + AUC; degree of oligomerization of isolated SP-A; electrophoresis under nondenaturing conditions, electron microscopy and analytical ultracentrifugation
[2] = molecular target: recombinant trimeric fragment of human SP-A1 (rfhSP-A) (human); assay: other fluorescence titration; intrinsic tryptophan fluorescence of rfhSP-A, PMB added, 25°C, 5 mM Tris-HCl pH 7.4 without NaCl; apparent KD from the Hill equation
[3] = molecular target: human surfactant protein A (SP-A), native, supratrimeric (human) (UniProt Q8IWL2); assay: other fluorescence titration; intrinsic tryptophan fluorescence of SP-A (15 nM) or rfhSP-A (0.3 μM), polymyxin added at increasing concentrations, 25°C, 5 mM Tris-HCl pH 7.4 with 150 mM NaCl; apparent KD from the Hill equation

stoichiometry N [1] | Kd [2] [nM] | Kd [3] [nM] | Substance
> 18 |  |  | human surfactant protein A (SP-A), native, supratrimeric (from UniProt Q8IWL2 21-248) (natural protein)
 | 1370 | 320 | polymyxin B (PMB) (peptide)
 |  | 260 | polymyxin B nonapeptide (PMBN)
